# Reference: patent US9265845B2, “Imaging methods using engineered integrin binding peptides” (The Board of Trustees of the Leland Stanford Junior …, priority 2006, dated 2016)
# Where two headings read alike, the source gives them in different places. Positions of bridges follow the written chain, without caps; N, C: chain ends. Residues, ends and D or L forms follow the SMILES beside them. *: point of attachment. DOTA = O=C(O)CN1CCN(CC(=O)O)CCN(CC(=O)*)CCN(CC(=O)O)CC1
# Legend:
# [1] = MicroPET imaging and biodistribution of radiolabeled peptides in U87MG tumor-bearing mice; format: in vivo, mouse; conditions: female, athymic nude (nu/nu), mouse, in vivo, iv, total radioactivity; for tissue uptake at 0.5 h: 0.5 h post injection; for tissue uptake at 2 h: 2 h post injection; for tissue uptake at 4 h: 4 h post injection; for tissue uptake at 25 h: 25 h post injection
# Experimental: (§1) MicroPET imaging of tumor-bearing mice is performed on a microPET R4 rodent model scanner (Concorde Microsystems Inc, Knoxyille, Tenn.). U87MG tumor bearing mice are injected with PET imaging agent via the tail vein. At various times post injection, the mice are anesthetized with 2% isoflurane, and 10 min static scans are obtained. Images are reconstructed by a two-dimensional ordered expectation maximum subset algorithm as previously described. Regions of interest (ROI) are drawn over the tumor on decay corrected whole body images and ROI derived % injected dose per gram of tissue is determined. Statistical analysis is performed using the student's t-test for unpaired data. A 95% confidence level is used to determine statistical significance.
# (§2) Female athymic mice bearing U87MG tumors were injected with 80-150 μCi of ^64Cu-DOTA-knottin 2.5D or 7-9 μCi of [^18F]-FB-E[knottin 2.5D]. Static images were taken at various timepoints post injection using a microPET R4 rodent model scanner (Concorde Microsystems Inc, Knoxyille, Tenn.). […] Uptake was also observed in the kidney as both probes cleared through the bladder.
# (§3) Mice are sacrificed by exanguinations at various time points postinjection. Blood, tumor and the major organs and tissues are collected, wet-weighed and measured in a γ-counter. The % injected dose per gram is determined for each sample. For each mouse, radioactivity of the tissue samples is calibrated against a known aliquot of the injectate. Values are reported as the mean±standard deviation.
# (§4) The following Table 10 quantifies the ^64Cu-DOTA knottin uptake by direct tissue sampling of the mice up to 24 hours post injection and is reported in % ID (percent injected dose)/gram. Similar results were obtained with [^18F]-FB-E[knottin 2.5D].
# (§5) A U87MG glioblastoma xenograft mouse model was used. U87MG cells were maintained at 37° C. in a humidified atmosphere containing 5% CO2 in Dulbecco's modified eagle medium, 10% heat-inactivated fetal bovine serum, and penicillin-streptomycin (all from Invitrogen). Animal procedures were carried out according to a protocol by Stanford University Administrative Panels on Laboratory Animal Care. Female athymic nude mice (nu/nu), obtained at 4-6 weeks of age (Charles River Laboratories, Inc.), were injected subcutaneously in the right or left shoulder with 2×10^7 U87MG glioblastoma cells suspended in 100 μL of PBS. Mice were used for in vivo imaging studies when their tumors reached approximately 8 to 10 millimeters in diameter.
# (§6) U87MG tumor-bearing mice (n=3 or more for each probe) were injected with ˜100 μCi of ^64Cu-DOTA-conjugated peptides via the tail vein and imaged with a microPET R4 rodent model scanner (Siemens Medical) using 3 or 5 min static scans. […] Images were reconstructed by a two dimensional ordered expectation maximum subset algorithm and calibrated as previously described (Wu, Y, Zhang, X, Xiong, Z, et al. microPET imaging of glioma integrin {alpha}v{beta}3 expression using (64)Cu-labeled tetrameric RGD peptide. J Nucl Med 2005; 46:1707-18). ROIs were drawn over the tumor on decay-corrected whole body images using ASIPro VM software (Siemens Medical). The mean counts per pixel per minute were obtained from the ROI and converted to counts per milliliter per minute with a calibration constant. ROIs were converted to counts/g/min, and % ID/g values were determined assuming a tissue density of 1 g/mL. No attenuation correction was performed.
# U87MG tumor = test: as above; format: in vivo, mouse; conditions: radiolabeled peptides, U87MG tumor-bearing mice
# Experimental: as §1, §2, §3, §4, §5, §6
# αvβ3 integrin = αvβ3 integrin (Homo sapiens, UniProt P05106+P06756); test: Yeast-displayed peptide binding to soluble αvβ3 integrin, flow cytometry; conditions: yeast-displayed peptides
# Experimental: The yeast display construct shown in FIG. 1A has the general orientation: Aga2-HA-engineered knottin—c-myc epitope, with the c-myc epitope at the carboxy terminus of the peptide. […] Bound integrin is detected with an anti-integrin antibody, labeled with FITC.
# Below is a typical protocol to label a yeast library samples for sorting by flow cytometry (FACS): • 1. Want 2×10^6 cells, OD600 of […] • 2. Add 1 mL PBS/BSA (phosphate buffered saline containing 1 mg/mL bovine serum albumin) to wash cells • 3. Spin down cells 3 min at 8000 RPM • 4. Remove supernatant using vacuum • 5. Re-suspend in 40 μL PBS/BSA containing proper amount of integrin (100 nM [2.5 μL of stock αvβ3]; no anti-cmyc at this point) • 6. Incubate for 1.5 h at r.t (w/tumbling) • 7. Add 1:250 dilution of (chick anti-cmyc) to labeling solution • 8. […] Incubate 1 h at 4° C. (w/tumbling) • 10. Keep on ice after this step. • 11. Spin down cells 3 min at 8000 RPM, 4° C. and vacuum supernatant • 12. Repeat wash steps 2-4 • 13. Re-suspend in 40 μL PBS/BSA containing proper amount of secondary labels (secondary labeling is simultaneous) • i. Anti-integrin Ab (FITC conj): 1:25 dilution+Anti-chick (Alexa 555): 1:100 dilution • ii. Positive control: Anti-chick (Alexa 555): 1:100 dilution (for FACS compensation) • iii. Positive control: Anti-chick (Alexa 488): 1:100 dilution (for FACS compensation) • 14. Incubate on ice 30 min and keep in dark (lid on ice bucket) • 15. Spin down cells at 3 min at 8000 RPM, 4° C. and vacuum supernatant • 16. Repeat steps 2-4: Add 1 mL PBS/BSA, pellet cells, vacuum supernatant • 17. Leave pelleted cells on ice until use. Fluorescent Cell Sorting
# Commercially available flow cytometers can measure fluorescence emissions at the single-cell level at four or more wavelengths, at a rate of approximately 50,000 cells per second (Ashcroft and Lopez, 2000). Typical flow cytometry data are shown in FIG. 4-7, in which yeast have been labeled with two different color fluorescent probes to measure protein expression levels and bound soluble ligand (in this case integrin receptor). A ‘diagonal’ population of cells results due to variation in protein expression levels on a per cell basis: cells that express more protein will bind more ligand. The equilibrium binding constant (Kd) can be determined by titration of soluble ligand, and the dissociation rate constant (koff) can be measured through competition binding of unlabeled ligand. With yeast, a monodispersity of tethered proteins exists over the cell surface, and soluble ligand are used for binding and testing, such that avidity effects are not observed, unlike other display methods using immobilized ligands. To date, the properties of most proteins expressed on the yeast cell surface mimic what is seen in solution in terms of stability and binding affinity (Bader et al., 2000; Feldhaus et al., 2003; Holler et al., 2000; VanAntwerp and Wittrup, 2000). See, also, Weaver-Feldhaus et al., “Directed evolution for the development of conformation-specific affinity reagents using yeast display,” Protein Engineering Design and Selection Sep. 26, 2005 18(11):527-536.
# Cell sorting was carried out on a FACSVantage (BD Biosciences) multiparameter laser flow cytometer and cell sorter. Before sorting, fluorescent staining was carried out as described above, so that analysis of integrin binding and c-myc expression levels were detected, as described above. […]
# [2] = direct tissue sampling, read-out: Kidney uptake, mean
# [3] = direct tissue sampling, read-out: Liver uptake, mean
# [4] = direct tissue sampling, read-out: Muscle uptake, mean
# [5] = direct tissue sampling, read-out: Tumor uptake, mean
# Chain of αvβ3 integrin (P06756 31-889 limits assumed): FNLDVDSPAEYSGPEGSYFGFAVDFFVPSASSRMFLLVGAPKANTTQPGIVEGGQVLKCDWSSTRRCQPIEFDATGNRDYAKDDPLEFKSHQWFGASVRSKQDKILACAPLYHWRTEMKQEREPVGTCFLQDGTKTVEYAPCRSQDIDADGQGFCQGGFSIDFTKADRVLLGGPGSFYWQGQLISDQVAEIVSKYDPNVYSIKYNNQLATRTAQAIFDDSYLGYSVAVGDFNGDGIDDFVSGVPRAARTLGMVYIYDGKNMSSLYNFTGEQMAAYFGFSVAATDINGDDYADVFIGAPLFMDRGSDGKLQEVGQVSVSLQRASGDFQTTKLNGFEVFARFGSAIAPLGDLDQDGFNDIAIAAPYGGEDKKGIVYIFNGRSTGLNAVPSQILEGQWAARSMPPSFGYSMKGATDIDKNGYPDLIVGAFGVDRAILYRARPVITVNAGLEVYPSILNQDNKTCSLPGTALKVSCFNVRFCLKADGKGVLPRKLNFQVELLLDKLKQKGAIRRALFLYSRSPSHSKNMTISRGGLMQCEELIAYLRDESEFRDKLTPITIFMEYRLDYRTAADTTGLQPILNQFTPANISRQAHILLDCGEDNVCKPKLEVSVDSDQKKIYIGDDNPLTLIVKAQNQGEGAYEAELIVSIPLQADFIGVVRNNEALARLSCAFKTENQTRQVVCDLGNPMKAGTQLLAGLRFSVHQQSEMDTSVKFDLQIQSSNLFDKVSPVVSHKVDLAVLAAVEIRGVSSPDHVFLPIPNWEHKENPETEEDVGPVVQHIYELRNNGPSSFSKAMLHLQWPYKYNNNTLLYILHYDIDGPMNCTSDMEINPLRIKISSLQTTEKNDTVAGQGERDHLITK
# Chain of αvβ3 integrin (P06756 891-1048 partner limits assumed): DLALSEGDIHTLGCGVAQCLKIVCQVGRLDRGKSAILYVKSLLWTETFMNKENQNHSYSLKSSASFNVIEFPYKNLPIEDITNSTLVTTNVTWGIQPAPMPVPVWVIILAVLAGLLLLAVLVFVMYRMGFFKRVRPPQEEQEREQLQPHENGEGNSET
# Chain of αvβ3 integrin (P05106 27-788): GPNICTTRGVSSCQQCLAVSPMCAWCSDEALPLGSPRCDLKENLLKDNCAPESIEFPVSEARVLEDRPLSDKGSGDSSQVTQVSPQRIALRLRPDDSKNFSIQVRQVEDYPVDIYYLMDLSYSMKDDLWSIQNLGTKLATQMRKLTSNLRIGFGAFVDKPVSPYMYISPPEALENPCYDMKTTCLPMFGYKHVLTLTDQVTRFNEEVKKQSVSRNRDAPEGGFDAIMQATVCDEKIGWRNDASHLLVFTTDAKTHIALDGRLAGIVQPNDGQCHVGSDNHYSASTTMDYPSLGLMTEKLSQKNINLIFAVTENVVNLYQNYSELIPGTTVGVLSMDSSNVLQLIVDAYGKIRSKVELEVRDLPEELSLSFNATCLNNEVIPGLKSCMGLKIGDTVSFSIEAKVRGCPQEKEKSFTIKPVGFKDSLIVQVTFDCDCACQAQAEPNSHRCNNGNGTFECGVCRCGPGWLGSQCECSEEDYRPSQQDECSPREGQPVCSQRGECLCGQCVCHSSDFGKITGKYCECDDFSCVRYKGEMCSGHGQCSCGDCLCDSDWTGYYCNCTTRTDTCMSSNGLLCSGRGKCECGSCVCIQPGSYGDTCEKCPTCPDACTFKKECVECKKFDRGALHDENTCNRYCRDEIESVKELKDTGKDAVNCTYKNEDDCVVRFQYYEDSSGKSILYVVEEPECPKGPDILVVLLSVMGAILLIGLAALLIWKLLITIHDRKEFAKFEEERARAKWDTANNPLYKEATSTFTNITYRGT
compound,measurement,setting,value
"CC(C)[C@@H]1NC(=O)[C@@H]2CSSC[C@H](NC(=O)CNC(=O)CN3CCN(CC(=O)O)CCN(CC(=O)O)CCN(CC(=O)O)CC3)C(=O)N3CCC[C@H]3C(=O)N[C@@H](CCC(N)=O)C(=O)NCC(=O)N[C@@H](CCCNC(=N)N)C(=O)NCC(=O)N[C@@H](CC(=O)O)C(=O)N[C@@H](Cc3c[nH]c4ccccc34)C(=O)N[C@@H](C)C(=O)N3CCC[C@H]3C(=O)N[C@@H]([C@@H](C)O)C(=O)N[C@@H](CO)C(=O)N[C@H]3CSSC[C@H](NC1=O)C(=O)NCC(=O)N1CCC[C@H]1C(=O)N[C@@H](CC(N)=O)C(=O)NCC(=O)N[C@@H](Cc1ccccc1)C(=O)N[C@H](C(=O)NCC(=O)O)CSSC[C@H](NC(=O)[C@H](CC(=O)O)NC(=O)[C@H](CO)NC(=O)[C@H](CC(=O)O)NC(=O)[C@H](CCC(N)=O)NC(=O)[C@H](CO)NC3=O)C(=O)N[C@@H](CCCNC(=N)N)C(=O)N[C@@H](C)C(=O)NCC(=O)N2 [^64Cu-DOTA-knottin 2.5D, metal not drawn] ({DOTA}-GCPQGRGDWAPTSCSQDSDCRAGCVCGPNGFCG-OH; disulfide 2-24, 14-26, 20-32; C-terminus assumed)",tissue uptake at 0.5 h,[1]; [2],7.26 %ID/g
same,tissue uptake at 0.5 h,[1]; [3],1.39 %ID/g
same,tissue uptake at 0.5 h,[1]; [4],0.45 %ID/g
same,tissue uptake at 0.5 h,[1]; [5],4.94 %ID/g
same,tissue uptake at 1 h,"[1]; 1 h post injection, direct tissue sampling, read-out: Kidney uptake, mean",4.06 %ID/g
same,tissue uptake at 1 h,"[1]; 1 h post injection, direct tissue sampling, read-out: Liver uptake, mean",1.29 %ID/g
same,tissue uptake at 1 h,"[1]; 1 h post injection, direct tissue sampling, read-out: Muscle uptake, mean",0.28 %ID/g
same,tissue uptake at 1 h,"[1]; 1 h post injection, direct tissue sampling, read-out: Tumor uptake, mean",4.47 %ID/g
same,tissue uptake at 2 h,[1]; [2],3.45 %ID/g
same,tissue uptake at 2 h,[1]; [3],0.98 %ID/g
same,tissue uptake at 2 h,[1]; [4],0.07 %ID/g
same,tissue uptake at 2 h,[1]; [5],2.89 %ID/g
same,tissue uptake at 4 h,[1]; [2],3.26 %ID/g
same,tissue uptake at 4 h,[1]; [3],0.92 %ID/g
same,tissue uptake at 4 h,[1]; [4],0.06 %ID/g
same,tissue uptake at 4 h,[1]; [5],2.24 %ID/g
same,tissue uptake at 25 h,[1]; [2],1.75 %ID/g
same,tissue uptake at 25 h,[1]; [3],0.53 %ID/g
same,tissue uptake at 25 h,[1]; [4],0.03 %ID/g
same,tissue uptake at 25 h,[1]; [5],1.31 %ID/g
same,"PET tumor targeting / imaging signal, in words",U87MG tumor,clearly targeted the U87MG tumor
"N=C(N)NCCC[C@@H]1NC(=O)[C@H](CCCCN)NC(=O)[C@@H](Cc2ccc(O)cc2)NC(=O)[C@H](CC(=O)O)NC(=O)CNC1=O [c(RGDyK), reference compound]",tissue uptake at 1 h,[1]; Tumor uptake,2.32 ± 0.55 %ID/g
same,tissue uptake at 1 h,[1]; non-specific liver uptake,~4 %ID/g
CVRLHESCLGQQVPCCDPCATCYCTGRGDSPASCYCRKLGTAMNPCSRT [RGD-AgRP#3],integrin binding compared in words,αvβ3 integrin,"RGD-AgRP #1<#2, <#3"
GCVRLHESCLGQQVPCCDPCATCYCRGDCYCRKLGTAMNPCSRT [RGD-AgRP#1],integrin binding compared in words,αvβ3 integrin,"RGD-AgRP #1<#2, <#3"
GCVRLHESCLGQQVPCCDPCATCYCTGRGDSCYCRKLGTAMNPCSRT [RGD-AgRP#2],integrin binding compared in words,αvβ3 integrin,"RGD-AgRP #1<#2, <#3"
"RGD-EETI#2: EETI-II scaffold with native fibronectin RGD loop, RGD at insert positions 3-5, SEQ ID NO: 20 (GCTGRGDSPASSKCKQDSDCLAGCVCGPNGFCG)",integrin binding compared in words,αvβ3 integrin,approximately half the affinity of RGD-EETI#3
